# Measurements: patent publication US20160122432A1 (INSERM INSTITUT NATIONAL DE LA SANTE ET DE LA RECHERCHE …, published 2016)
# Biological target: T1, human HER2 receptor (human, UniProt P04626 23-1255)
# T1 construct: whole, on cells; Endogenous HER2 on human cancer cell lines; also called Human Epidermal Growth Factor Receptor 2; Neu
# Experiment: flow cytometry, biotinylated antibody titrated on SK-BR-3 cells, PE-streptavidin, apparent affinity
# From the text: After a washing step, bound antibodies were detected using PE-labeled streptavidin and analyzed by FACS. The inverse of the fluorescence was plotted as a function of the inverse of antibody concentration.
row,Kd [nM],Binder
1,51.6,"HER2.C7b sdAb (VHH, not shown: small tags and cut ends, biotinylated in vitro (Ez-link micro NHS-PEO4-biotinylation kit) for the affinity determination; sites not stated, also called sdAb HER2.C7b; anti HER2 sdAb HER2.C7b) VHH: QVQLVQSGGGLVQAGGSLRLSCAASGRTFSSYAMAWFRQAPGKEREFVAAISWSGANIYVADSVKGRFTISRDNAKDTVYLQMNSLKPEDTAVYYCAVKLGFAPVEERQYDYWGQGTQVTVSS"
2,2.9,"HER2.C7b-Fc (Fc fusion, biotinylated in vitro for the affinity determination; sites not stated, Bivalent for HER2: two HER2.C7b sdAb fused to the constant part of human IgG1; also called Sdab HER2.C7b-Fc; aHER2.C7b-Fc; not shown: hinge, CH1 and CH2 domains of a human IgG1 (so in the source)) QVQLVQSGGGLVQAGGSLRLSCAASGRTFSSYAMAWFRQAPGKEREFVAAISWSGANIYVADSVKGRFTISRDNAKDTVYLQMNSLKPEDTAVYYCAVKLGFAPVEERQYDYWGQGTQVTVSS"
